Data reported in patent US20170058032A1 (published 2017).

Biological target: T1, extracellular domain of human CD79b fused to Fc (huCD79becd-Fc) (UniProt P40259 29-159)
T1 chain: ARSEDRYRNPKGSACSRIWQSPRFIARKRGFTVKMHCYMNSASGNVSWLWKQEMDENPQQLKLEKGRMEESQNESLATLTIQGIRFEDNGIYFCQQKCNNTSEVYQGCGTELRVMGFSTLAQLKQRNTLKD
Test: Biacore; Fab

B1: MA79b Fab (Fab, V domains shown)
VH: EVQLQQSGAELMKPGASVKISCKATGYTFSSYWIEWVKQRPGHGLEWIGEILPGGGDTNYNEIFKGKATFTADTSSNTAYMQLSSLTSEDSAVYYCTRRVPVYFDYWGQGTSVTVSS
VL: DIVLTQSPASLAVSLGQRATISCKASQSVDYDGDSFLNWYQQKPGQPPKLFIYAASNLESGIPARFSGSGSGTDFTLNIHPVEEEDAATYYCQQSNEDPLTFGAGTELELKR
Work on B1 yielded a Kd of 200 nM.
